Experimental data reported in the nanobody polyreactivity screen of Harvey et al. (2022).

Experiment: yeast display, Sf9 membrane polyspecificity reagent, FACS + sequencing; frameworks hold sequencing errors
Summary of the method: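 Galactose-induced (36–48 hours) yeast carrying a synthetic nanobody display library were exposed to 10% biotinylated, detergent-solubilized Sf9 membrane reagent at 4 °C for 1 hour. FACS followed streptavidin microbead enrichment, using low and high (top ~1%) gates for expression (anti-HA) and reagent binding (streptavidin). Colony PCR, MiSeq 2 × 250 sequencing and CDR-length filtering followed. Labels for polyreactivity reflect the gate of origin.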

Question: For “QVQLVESGGGLVQAGGSLRLRCAASGFIFIFNAMGWYRQAPGKERELLAAIDTSDDSTYYADSVKGRFTISRDNAKNTVYLQMNSLYPEDTAVYYCAAEELSNYEYWGQGTQVSVSS”, which “polyreactivity (PSR sort gate)” value is on record?
Answer: low polyreactivity

Question: With “QVQLVESGGGLVQAGGSLRLRCAASGFIFWMNAMGWYRQAPGKERELVAAISIGGRTNYADSVKGRFTISRDNSKNTVYLQMNSLKPEDTAVYYCNKDYRSVYKGGGFDYWGQGTQVTVST” as the sequence, how does the “polyreactivity (PSR sort gate)” value read?
Answer: low polyreactivity

Question: For “QVQLVESGGGLVQAGGSLRLRCAASGFISGYNTMGWYRQAAGKEMEFVAAISVSGGRTYYADSVKGRFTFSRDNAKNTVYLQMNSLKPEDTAVYYCAGRYWSWRSFKVDYWGQGTQVTVSS”, which “polyreactivity (PSR sort gate)” value is on record?
Answer: high polyreactivity

Question: With “QVQLVESGGGLVQAGGSLRLRCAASGFNHKPMGCYRQAPGKERELVAAISYSAGSTYYADSVKGRFTISRDNAKNTVYLQMNSLKPEDTAVYYCDIRYNYFTGTLSRYYSNIYGYWGQGTQVTVSS” as the sequence, how does the “polyreactivity (PSR sort gate)” value read?
Answer: high polyreactivity

Question: For “QVQLVESGGGLVQAGGSLRLRCAASGFTFGYNAMGWYRQAPGKERELVAAIYFSDGITYYADSVKGRFTISRDNAKNTVYLQMNSLKPEDTAVYYCAADLYFEYEYWGQGTQVTVSS”, which “polyreactivity (PSR sort gate)” value is on record?
Answer: high polyreactivity

Question: Which “polyreactivity (PSR sort gate)” value does the source give for “QVQLVESGGGLVQAGGSLRLRCAASGFTFPSYPMGWYRQAPGKEREVVAAISQRGGSTYYADSEKGRFTISRDNAKHTVYLQLNSLKPEDTAVYYCAALAPRTGRPTYGYWGQGTQVTVSS” here?
Answer: low polyreactivity

Question: Which “polyreactivity (PSR sort gate)” value does the source give for “QVQLVESGGGLVQAGGSLRLRCAASGFTIGANTMGWYRQAPGKEWELVASISASGGSTYYADSVKGRVTISRDNAKNTVYVQMNSLKPDDTAGYYCAARRYPGRTATYYSWGQGTQVTVSS” here?
Answer: high polyreactivity

Question: With “QVQLVESGGGLVQAGGSLRLRCAASGGTFYPYALGWYRQAPGKESELVAAISTSGGITYYADSVKARFTISRDNAKNTVYLQMNSLKPEDTAVYYCAAPVAYRGSRNFIYRYNYWGQGTQVTVSS” as the sequence, how does the “polyreactivity (PSR sort gate)” value read?
Answer: high polyreactivity

Question: Which “polyreactivity (PSR sort gate)” value does the source give for “QVQLVESGGGLVQAGGSLRLRCAASGHIFRQYAMGWYRQAPGKERELVAAITSGGSTYYADSVKGRFTISRDNAKNTVYLEMNSLKPEDNAVYYCADKYFFSYRHGDYWGQGNQVTVSS” here?
Answer: low polyreactivity

Question: Which “polyreactivity (PSR sort gate)” value does the source give for “QVQLVESGGGLVQAGGSLRLRCAASGIIFDGNVMGWYSQAPGKEREFVASISISGGSTSYADSVKGRFTISRDNAKNTVYLQMNSLNPEDTAVYYCNTDVGYGRVWRWRYHGDYWGQGTQVTVSS” here?
Answer: low polyreactivity

Question: For “QVQLVESGGGLVQAGGSLRLRCAASGIIIYDYAMGWYRQAPGKERELVAAISSTAVGTYYADSVKGRFTISRDNAKNTVYLQMNSLKPVDTAVYYCAAAVSPHSEGFGEYNYWGQGTQVTVSS”, which “polyreactivity (PSR sort gate)” value is on record?
Answer: low polyreactivity

Question: Which “polyreactivity (PSR sort gate)” value does the source give for “QVQLVESGGGLVQAGGSLRLRCAASGLTFGVYPMGWYRQAPGKERELVAAISSSGGSTYYADSVKGRYTISRDYAKNTVYLHMNSLKPEDTAVYYCNAGRGTKYDYWGQGTQVTVSS” here?
Answer: low polyreactivity

Question: Which “polyreactivity (PSR sort gate)” value does the source give for “QVQLVESGGGLVQAGGSLRLRCAASGLTFVYYAMGWYRQAPVKERELVAAITSGGSTYYADSVKGRFTISRDNAKNTVYLQMNSLKPEDTAVYYCAATYPGFYFLLDEYWGQGTQVTVSS” here?
Answer: high polyreactivity

Question: For “QVQLVESGGGLVQAGGSLRLRCAASGNIFDDNAMGWYRQAPGKERELVAALTWTGGSTYYADSVKGRFTISRDNAKNTVYLQMNSLKAEYTAVYNCADYDYWGQGTQVTVSS”, which “polyreactivity (PSR sort gate)” value is on record?
Answer: low polyreactivity

Question: For “QVQLVESGGGLVQAGGSLRLRCAASGNTFFGYDMGWYRQAPGKERELVAAISGSGGGTYYADSVKGRFTISRDNAMNTVYLQMNCLKPEDTAVYYCAADSPQTEGYWGEGTQVTVSS”, which “polyreactivity (PSR sort gate)” value is on record?
Answer: low polyreactivity

Question: With “QVQLVESGGGLVQAGGSLRLRCAASGNTFGYYTMGWYRQAPAKESELVASIDSGGGTNYADSVKGRFTISRDNAKNTVYLQMNRLKPEDTAVYSCAAASPLYWVDDFESGWRYYYWGQGTQVTVSS” as the sequence, how does the “polyreactivity (PSR sort gate)” value read?
Answer: low polyreactivity

Question: With “QVQLVESGGGLVQAGGSLRLRCAASGRIFGRYAMGWYRQAPGKERELVARITYIAGNTYYADSVKGRFTISRDNSKNTVYLQMKSLKPEDTAVYSCNADSYYIQYDYWGQGTQVTVSS” as the sequence, how does the “polyreactivity (PSR sort gate)” value read?
Answer: high polyreactivity

Question: For “QVQLVESGGGLVQAGGSLRLRCAASGRLFQSNAMGWYIQAPGKERELVSGINSDTSTYYADSVKGRFTISRDNAKNTVYLKMNSLKPDDTAVYYCNAGWDTYYWQSTEFDYWGQGTQVTVSS”, which “polyreactivity (PSR sort gate)” value is on record?
Answer: low polyreactivity

Question: With “QVQLVESGGGLVQAGGSLRLRCAASGRTFAFYGMGWYRQAPGNARELVAAITKRGGSTYYADSVKGRFTISLDNAKYTVYLQMNSLKPEDTAVYYCAATGVKGRIAVWYGYWGQGTQVTVSS” as the sequence, how does the “polyreactivity (PSR sort gate)” value read?
Answer: high polyreactivity

Question: Which “polyreactivity (PSR sort gate)” value does the source give for “QVQLVESGGGLVQAGGSLRLRCAASGRTFSGYAMGWYRQSPGKERELVAAITASGSSTYYADSVKGRFTSSRDNAKNTVDLQMNSLKPEDTAVYYCAADYTGDWADGPHSLREYDYWGQGTQVTVSS” here?
Answer: low polyreactivity

Question: Which “polyreactivity (PSR sort gate)” value does the source give for “QVQLVESGGGLVQAGGSLRLRCAASGRTFSSNAMGWSRQAPGKERQLVASITWSGRTYYADSVKGRFTNSRDNAKNTVYLQMNSRNPEDHAVYYCATVYRQESYFYTLYYWGQGTQVTVSS” here?
Answer: high polyreactivity

Question: Which “polyreactivity (PSR sort gate)” value does the source give for “QVQLVESGGGLVQAGGSLRLRCAASGRTFVGTAMGWYRQAPGKERELVAAISWDGGSPYYADSVKGRFTISRDNAKNTVYLQMNSLKPEDTAVYYCAALYRPSAFRGYGYWGQGTQVTVSS” here?
Answer: high polyreactivity

Question: With “QVQLVESGGGLVQAGGSLRLRCAASGRTFWKNAMGWYRQEPRKECELVAAISWGGGSTYYADSVKGRFTISRDNAKNTVYLQMNSLKPEDTAVYYCNVYYRRVLLGFYYWGQGTQVTVSS” as the sequence, how does the “polyreactivity (PSR sort gate)” value read?
Answer: low polyreactivity

Question: Which “polyreactivity (PSR sort gate)” value does the source give for “QVQLVESGGGLVQAGGSLRLRCAASGRYAMGWYRQAPGKEREFVARITWSGGSTYYADSVKGRFTISRDNAKNTVYLQMNSLNPEDTAVYYCAKVSRRTDYYYWGQGTQVTVSS” here?
Answer: high polyreactivity

Question: Which “polyreactivity (PSR sort gate)” value does the source give for “QVQLVESGGGLVQAGGSLRLRCAASGSIFFFYAMGWYSQARGKEREFVAGITYSGGITYYADSVKGRFTISRDNAKNTDYLQMNSLKPEDTAVYFCDYGGGVYQYGYWGQGTQVTVSS” here?
Answer: low polyreactivity

Question: With “QVQLVESGGGLVQAGGSLRLRCAASGSIFISYAMGWYRQAPGKERELVAAISIRGTRTFYADSVKGRFTISRDNAKNTVYLQMNSLKPEDTAVYYCAARAPWPKWGYYYWGQGTQVTVSS” as the sequence, how does the “polyreactivity (PSR sort gate)” value read?
Answer: high polyreactivity

Question: For “QVQLVESGGGLVQAGGSLRLRCAASGSIFKRYAMGWYRQAPGKERELVAAISWGGGRTYYADSVKGRFTISRDTAKNTVYLQMNSLKPEDTAVYYCNRVGSYGQSNSYQGGDYWGQGTQVTVSS”, which “polyreactivity (PSR sort gate)” value is on record?
Answer: high polyreactivity

Question: For “QVQLVESGGGLVQAGGSLRLRCAASGSIFKTYAMGWYRQAPRKERELVAAITTSGGRTYYADSVKGRFTISRDNAKYTVYLQMNSLKPEDTAVYYCNADLFPGYVSYPEYDYWGQGTQVTVSS”, which “polyreactivity (PSR sort gate)” value is on record?
Answer: low polyreactivity

Question: With “QVQLVESGGGLVQAGGSLRLRCAASGSIFNSYAMGWSRQAPGKERELVAAISIRGTRTYYADSVKGRFTISRDNAKNTVYLQMNSLKPEDTAVYYCAADASYTEGMDYWGQGTQVTVSS” as the sequence, how does the “polyreactivity (PSR sort gate)” value read?
Answer: high polyreactivity

Question: For “QVQLVESGGGLVQAGGSLRLRCAASGSIFSRNAMGWYRQAPGKERELVAAISGRGGSTYYADSVKGRFTISRDNAMNTVYLQMNRLKPEDTAVYYCAKAVIYRLSEAMDYWGQGSQVTVSS”, which “polyreactivity (PSR sort gate)” value is on record?
Answer: high polyreactivity

Question: Which “polyreactivity (PSR sort gate)” value does the source give for “QVQLVESGGGLVQAGGSLRLRCAASGSILPWYAMGWYRHAPGKERELVAVITSDGGTNYADSVKGRFTISRDNSKNTVYLQMNSLKPEDTAVYYCAADRFSQSGFDSWGQGTQVTVSS” here?
Answer: low polyreactivity

Question: Which “polyreactivity (PSR sort gate)” value does the source give for “QVQLVESGGGLVQAGGSLRLRCAASGSNFDTYAMGWYRQAPGKERELDAAINSGGGTNYADSVKGRFTISRDNANNTVYLQMNSLKPEDTAVYYCATDIRREAGGGDFDYWGQATQVTVSS” here?
Answer: low polyreactivity

Question: With “QVQLVESGGGLVQAGGSLRLRCAASGSNFKHNDMGWSRPAPGKERELVAAISRSGGSTYYADSVKGRFTISRDNGKNTVYLPMNSLKPEDTAVYYCNAGRRTGRYGYWGQGTQVTVSS” as the sequence, how does the “polyreactivity (PSR sort gate)” value read?
Answer: high polyreactivity

Question: For “QVQLVESGGGLVQAGGSLRLRCAASGSTCWFSAMGWSRQATGTERELVATITIGARTYADSVKGRCTISRDNPKTTVYVQMNSLKPEETAVYYCAARRRRLEYDYGRNDYWGQGTQVTVTS”, which “polyreactivity (PSR sort gate)” value is on record?
Answer: low polyreactivity

Question: Which “polyreactivity (PSR sort gate)” value does the source give for “QVQLVESGGGLVQAGGSLRLRCAASGSTFASYAMGGYRQAPGKERELVAAITRSGGSTYYADSVKGRFTISRVKAKNTVYLQMNSLKPEDTAVYYCARRAVYGIFDYWGQGTQVTVSS” here?
Answer: high polyreactivity

Question: With “QVQLVESGGGLVQAGGSLRLRCAASGSTFDSYAMGWYRQAPGKERELVAAITTTGGSTFYADSVKGRFTISRDYAKNTVYLQMNSLKPEDTAVYYCAADDGWQEFEYWGQGTQVTVSS” as the sequence, how does the “polyreactivity (PSR sort gate)” value read?
Answer: low polyreactivity

Question: For “QVQLVESGGGLVQAGGSLRLRCAASGSTFGGYAMGWYRQAPGKERELVAAISRRGGRTYYADSVKGRFRISRDNAKNTVYLQRNSLKPEDTAVYYSAADWSYVRYYYWGQGTQVTVSS”, which “polyreactivity (PSR sort gate)” value is on record?
Answer: high polyreactivity

Question: Which “polyreactivity (PSR sort gate)” value does the source give for “QVQLVESGGGLVQAGGSLRLRCAASGSTFGKNAMGWYRQAPGKERELVAAISKNGGSTYYADSVKGRFTISRDNAKNTVYILMNSLKPEDTAVYYCNTRRKNFVKSSQVEYWGQGTQVTVSS” here?
Answer: high polyreactivity

Question: With “QVQLVESGGGLVQAGGSLRLRCAASGSTFGLYTMGWYSQAPGKERELVASISIVGSTYYADSVKGLFTSSRDNAKNTVYFQMNSLKPVDTAVYYCAADSEIIYTVRNRTYPWIMDYWGQGTQVTVSS” as the sequence, how does the “polyreactivity (PSR sort gate)” value read?
Answer: low polyreactivity

Question: With “QVQLVESGGGLVQAGGSLRLRCAASGSTFTSYTMGWYRQAPGKERELVARITRGGGSTYYADSVKGRFTISRDNAKNTVYLQMNSLKPEDTAVYYCAKQVVGRAYYSWGQGTQVTVSS” as the sequence, how does the “polyreactivity (PSR sort gate)” value read?
Answer: low polyreactivity

Question: Which “polyreactivity (PSR sort gate)” value does the source give for “QVQLVESGGGLVQAGGSLRLRCAASGSTFYGNTMGWNRQAPGKERELVAAITWTGGRTYYADSVKGRFTISRDNAKNTVYLQMNSLIPEDTAVYYCARGASFYQKFYYWGQGTQVTVSS” here?
Answer: high polyreactivity

Question: With “QVQLVESGGGLVQAGGSLRLRCAASGSTFYGYVMGWYRQAPGQERELVAAITNRAGSTYYADSVKARFTISRDNAKNTVYVQMNSLKPEDTAVYYCNARRPAKSRYRHVYWGQVTQVTVSS” as the sequence, how does the “polyreactivity (PSR sort gate)” value read?
Answer: high polyreactivity

Question: Which “polyreactivity (PSR sort gate)” value does the source give for “QVQLVESGGGLVQAGGSLRLRCAASGYNIQHYAMGWYRQAPGKERELVAAITSGGSTTYADSVKGRFTISRDNAKNTVYLQMNSLKPEDTAVYYCKALRRARYTRKGYEYWGQGTQVTVSS” here?
Answer: high polyreactivity
